Our source for the amyloid nucleation score values is the supplement of paper PMC12042874.

± gives the uncertainty stated by the source.

A short description of the data set: amyloid nucleation score (Sup35N fusion, yeast selection) (log enrichment); library NNK2; higher = more nucleation; inactive = no reads after selection. The essentials: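 Output and input plasmid inserts were sequenced by Illumina after psi-negative yeast carrying Sup35N fused to peptides of 20 random codons had been induced 24 hours with 100 μM copper sulfate and grown 7 days at 30°C on medium lacking adenine and uracil. The nucleation score is the DiMSum log enrichment of output over input reads, centred on the mode score of non-aggregating sequences. Sequences with under 100 input reads were excluded.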

Take LFSTYRNFIFVIHSADMCKS: the amyloid nucleation score is -0.558 ± 1.
In the case of KFRMDGGFILNVVHKQHNMV it was 0.023 ± 0.8.
The substance PIFYSPLAFMLRMYHNG returned an amyloid nucleation score of -0.998 ± 0.38.
In the case of WDIIF it was -1.45 ± 0.34; in that of IMMNNMAVIFR, 6.3 ± 0.083.
In the case of FILDAVGNFFCFVRHTTPQV it was 0.106 ± 1; in that of IVSTV, 0.655 ± 0.49; in that of MLKQSGDSVAHCLGKTGSQM, 0.371 ± 0.35.
AYGKLSE showed an amyloid nucleation score of -0.68 ± 0.5.
AYSIHPLNKGVKVSYRLAGH yielded an amyloid nucleation score of 0.306 ± 0.2.
The value for SWWAY was 0.69 ± 0.62.
The value for WLWIKLEPLICSNFCWVVLW was 0.537 ± 0.48; that for DLFVSGTVETFPANWGGMSR was 0.665 ± 0.42.
In the case of RAFCVGSTYSSSGGQSLMRV, the amyloid nucleation score entry is “inactive”.
Substance NFGGIKKLYNTMRSYWLGTR yielded an amyloid nucleation score of -1.22 ± 0.45.
In the case of NARGHVNV it was 0.786 ± 0.44; in that of STTQEF, 0.086 ± 0.32.
In the case of PEGISNGLK it was -1.44 ± 0.55; in that of LMTSPSFIYVWSYTGFRMFG, 4.983 ± 0.042.
Substance FSHNTEFRVGCGYEFAVGKA displayed an amyloid nucleation score of -0.262 ± 0.79.
LNSTGAQQFRTVEVYTSMQW showed an amyloid nucleation score of 2.81 ± 0.11.
In the case of HEVYNKGPT, the amyloid nucleation score result is “inactive”.
Take TFCEWMLWNTLCQVLSVPPY: the amyloid nucleation score came to 6.423 ± 0.045.
The value for VDCWMSISCQDYDSKFKVKS was 0.242 ± 0.77; that for SITFFKNAFVAIHIAR was “inactive”; that for WFIILRLIYVYGTNCAVYMV was -0.003 ± 0.42.
In the case of FSEYWVLSELVMVNKGVIWM it was -0.865 ± 0.36; in that of RVPGRDALSIASWLQSTGQV, 1.03 ± 0.21.
The value for CHCMLIG was 3.46 ± 0.066; that for CRMMI was 0.591 ± 0.36.
As for ERGGIYWHVGRFSPDSEVTF, the amyloid nucleation score is -0.27 ± 0.76.
In the case of ELYRCA it was 0.744 ± 0.22; in that of SSQCYYGPLFWSYEFRSYCV, -0.162 ± 0.46.
MGHRFLLRRLSFIADLLV displayed an amyloid nucleation score of -1.12 ± 1.
Take IIHDEVSLPWI: the amyloid nucleation score result is “inactive”.
The value for KRHMVSS was 1.72 ± 0.42; that for AGMPCKFIRARSSPYFRALC was 0.495 ± 0.62.
The value for ASQIDSLVRNRNCLNSTKIG was -0.23 ± 0.44.
In the case of TVYSGILKSY it was -0.574 ± 1.
TESIFCSYSWVCVGVMSNYD came in with an amyloid nucleation score of 5.1 ± 0.071.
The value for QSMICTFFVLCLRSRYW was 4.46 ± 0.068; that for RAFYLVTSPDFYFCRILGAT was “inactive”.
The value for TNFYWY was 3.23 ± 0.065; that for SRGISKVTWP was 0.276 ± 0.28.
On to QELIK, for which the amyloid nucleation score was 0.574 ± 0.44.
DIWIMI registered an amyloid nucleation score of -0.225 ± 0.45.
The value for IRMGRANRWEVLARWTSVVA was 9.548 ± 0.079; that for NFVLGKTSSVVCSHQSAALT was 0.505 ± 0.18.
The value for ESPTVCPANF was -0.248 ± 0.65; that for SSCPYYHGYNVRVMSCSHVI was 0.091 ± 0.4.
In the case of GFKSFEHL it was 1.91 ± 0.14.
NSLVLFFSVGVLRL showed an amyloid nucleation score of 1.37 ± 0.21.
ASIYNFYVLNSPFLF: the amyloid nucleation score stood at 4.73 ± 0.081.
Consider YGPWSCLI, for which the amyloid nucleation score result is “inactive”.
On to RFSDM, for which the amyloid nucleation score is -0.126 ± 0.31.
In the case of RNALLCADLTPLAPLNLFCD it was -0.636 ± 0.76; in that of VVDVVIGYWGRVMSDGCVAG, 0.816 ± 0.24.
For the substance IFKSHIPW, the amyloid nucleation score was -1.22 ± 0.48.
Regarding NACPVCSRW, the amyloid nucleation score came out at 0.589 ± 0.38.
In turn, GVSGCANVSCMCADVYPIAP showed an amyloid nucleation score of 9.77 ± 0.045.
In the case of TIQAYICPLVSKAYWWGVEY it was 6.427 ± 0.032; in that of VLCCPSKISTALKCWVGEAC, 0.233 ± 0.62; in that of MYGTTRLVLWAVIDWFEGVG, -0.718 ± 0.49.
As to TRYIADRAVVSNRC, the amyloid nucleation score came to 0.81 ± 0.31.
In the case of IEPKHWIYTSGGLTRGRLYG it was 0.073 ± 1.1; in that of FRVWSFFLNF, 3.12 ± 0.1; in that of VYTQYYNTKSKISYCFLRLI, “inactive”.
The value for RSKMNRLMVLRSRVRWWYNE was 0.485 ± 0.32; that for SWLYLPWLLLQARILHR was -0.197 ± 0.24.
In the case of VALVSGVNNTKDMSRAPNRV it was -0.19 ± 0.36.
In the case of SDVYLTICHFFGHNLKVLPR, the amyloid nucleation score stood at 1.38 ± 0.26.
As to VLSNLIFYLSPFCIMHLMR, the amyloid nucleation score turned out to be 3.27 ± 0.13.
As to CLNRNGKEVTWVGLIC, the amyloid nucleation score was 2.46 ± 0.069.
In the case of LSGRHY it was 0.33 ± 0.74.
The value for DEIQGLNRRYLPRG was 0.936 ± 0.52.
INGNFVIKKCYRGYVS yielded an amyloid nucleation score of -0.557 ± 1.1.
The value for HGDMYRRQDVVSGSNE was 0.153 ± 0.49; that for ACLFWIYARRHRLAWFVFIW was -0.37 ± 0.76.
The value for GYVFASSVD was 0.791 ± 0.81; that for QYVVNLFYPLYMEKKCWSSI was 6.288 ± 0.039.
The value for YYYIRCTAVK was -0.495 ± 0.65; that for SFYIRGYISFLGHRTW was 2.57 ± 0.17.
As to TGCVDVAEMVNP, the amyloid nucleation score came to 0.138 ± 0.48.
The value for STDWNLRPGPSLRWLLSPAT was 0.92 ± 0.45; that for DDIIISPVPDHE was “inactive”.
In the case of FTVDCLVVIFVYIEPMNWMG it was 0.672 ± 0.62; in that of AFDLLDD, 0.904 ± 0.33; in that of VCSTLVSFHHQRVKKVDAV, -1.12 ± 0.78.
In the case of HRSCVDTDVSDGWKGVESEA it was 0.599 ± 0.64; in that of SRSAWLRELDPPA, 0.839 ± 0.43.
RADALIVTVARFTPPALVKV came in with an amyloid nucleation score of 1.15 ± 0.68.
In the case of VFAMDYDVCDNSTCHKGV it was -0.057 ± 0.21; in that of FPQWFHFGCNLARSL, -0.613 ± 0.46; in that of NATCA, -1.01 ± 0.45.
The value for VNYSYVATSYRLVAILSNVW was -1.36 ± 0.62; that for GYRYWRTACSALFRWSEMC was 0.948 ± 0.26; that for TIFWLTISCQRYRD was 1.46 ± 0.13.
The value for VVRAVYGYQFYGIVL was 0.648 ± 0.25; that for CRRTFDSLIS was -0.74 ± 0.78; that for NTMELLFIGVWIAFWLN was “inactive”.
The substance EFWPIITTSRRDMISNLDQG gave an amyloid nucleation score of -0.593 ± 0.43.
In the case of DRNMSVNI it was 1.22 ± 0.44; in that of IVDGEKYDLVWMFEGHG, -0.536 ± 0.39; in that of FCDALQISSYTSENYGIVWS, -0.685 ± 0.36.
The value for IVAEMW was 1.75 ± 0.4; that for SHINFYVLEFWTFRIGDVFV was “inactive”.
In the case of IFLSSDLTDGVYSSLYDPID it was 0.042 ± 1.1.
In the case of RSTTM, the amyloid nucleation score entry is “inactive”.
In the case of GMRSCYWCEPSYCWASA it was 2.9 ± 0.066.
In the case of MQLNNG it was 0.075 ± 0.21; in that of SWVVL, -0.563 ± 0.79.
The value for LYSYDLTC was 1.78 ± 0.13; that for DYDEIMRLMLWSSLLLFR was 0.47 ± 0.34.
VFFLFYTMWRLVYFEPNMKS returned an amyloid nucleation score of -1.25 ± 0.62.
In the case of YFVVL it was -1.78 ± 0.62; in that of VVNDIATLLRVMNEYYAESA, -0.531 ± 0.79.
RLKWKLEQNSSLLWGRYRTA came in with an amyloid nucleation score of 1.24 ± 0.14.
Consider LYSDMRASDRYWTLSFDCKI, for which the amyloid nucleation score is 1.88 ± 0.48.
In the case of FRVFCMHSED it was 2.47 ± 0.12; in that of ALEVLTTLRISLPSHKGSSF, 5.533 ± 0.051; in that of NRLPFKYLSIDIYPCLASLA, -0.3 ± 0.26.
In the case of RHFHGGSSIAARAVTWAGQG it was 1.5 ± 0.44.
In the case of MSYQSINKKGFVVFGRKLLA it was -0.512 ± 0.39.
Turning to TVYIYSLVSRNKEVMFFTD, the amyloid nucleation score result was “inactive”.
PCCVKSELGLPQWWSVYL returned an amyloid nucleation score of 5.645 ± 0.056.
In the case of AEHYECPLCERIETAGCKLV it was 0.509 ± 0.24; in that of QCYVIYS, 4.513 ± 0.029.
In the case of CWPCRMMKLVREESAVYTGG it was 0.062 ± 0.34.
As for VYCFNSRSNFHTLMLSSGYG, the amyloid nucleation score was -0.594 ± 0.55.
The value for FFLAPKGKTSYGRGN was “inactive”; that for DQEALGRLWYLFAHGSLVTR was 0.847 ± 0.44; that for PCFRWSRGRKSCECCHVGYM was 0.122 ± 0.25.
The value for CAMDCSSVQGGSTITKCHTM was 0.218 ± 1.1; that for IELLYIRYK was -2.09 ± 1.1; that for KGFEIFSSFTLYV was -0.684 ± 0.55.
The value for CHVFTSSSTRSLWTSDIIPS was 0.218 ± 0.48.
Turning to RRHSNRICLQLWNHLGKRCR, the amyloid nucleation score was found to be 0.587 ± 0.29.
In the case of LTPYEYCVYDCFLSLESVLF it was “inactive”; in that of FCGIGSPHYGRSAALQLRLM, 0.708 ± 0.37; in that of CFRRKGALSLIACRW, -0.03 ± 0.46.
In the case of CSSEDITYAWQWARWLRS, the amyloid nucleation score worked out at 0.494 ± 0.41.
The value for WCFLT was -0.343 ± 1.1.
In turn, KDVTVNIRWTLIQLLYHTNF showed an amyloid nucleation score of 4.08 ± 0.11.
